# Assay: yeast display, Sf9 membrane polyspecificity reagent, FACS + sequencing; frameworks hold sequencing errors
# Summary of the method: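 Using colony PCR, genes from sorted yeast display clones were amplified, then sequenced on MiSeq at 2 × 250 and filtered by CDR length. The clones had been stained with 10% biotinylated, detergent-solubilized Sf9 membrane reagent for 1 hour at 4 °C and sorted by FACS into low and high (top ~1%) gates on anti-HA and streptavidin fluorescence. Polyreactivity labels come from the gate of origin.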
row,Sequence,polyreactivity (PSR sort gate)
1,QVQLVESGRGLVQEGGSLRLSCAASGSTFEPYAMGWYRQAPGKERELVAAITLTAGSTYYADSVKGRFTISRDNAKNTVYLQRNSLKPEDTAVYYCAAEFWLVEDDYWGQGTQVTVSS,low polyreactivity
2,QVQLVESGRGLVRAGGSLPFSCAASAGNFMRYAMGWYRQAPGKERELVAAITANGGSTYYADSVKGRFTISRDNAKNTVYLQMNSLKPEDTAVYYCNADTGVRSYRRDYWGQGSQVTVSS,low polyreactivity
3,QVQLVESGRRLVQAGGSLRLSCAASGRIFPGNAMGWYRQAPGKERELVAAMSYGGGSTYYADSVKGRFTISRDNAKNTVYLQMNSLKPEDTAVYYCAARYRGSRFDYWGQGTQVTVSS,high polyreactivity
4,QVQLVESGRVLVQAGGSLRLSCAASGITFISYAMGWYRPAPGKQSELVAVISKSGGRTYYADSVKGSFTISRDNANNTVYLQMNSLKPEDTAVYYCAADVYLSRYEKYGYWGQGTQVTVSS,high polyreactivity
5,QVQLVESGVALVQAAGSLRLSCAASGSTFGYYTMGWYRQAPGKERELVAAISWSGGSTYYADSVKGRFTISRDHAKTTVYLQMNSLKPEDTAVYFCAAKTNRGSYSYEYWGQGTQVTVSS,high polyreactivity
6,QVQLVESGVCLVQAGGSLRLSCASSGRILSTYAMGWYRQPPGKERELVAAISSGGSTYYADSVKGRFTISRDNAKHTVDLQMNSLKPEDTAVYYCNARKKRGYSRPAFDYWGQGTQVTVSS,high polyreactivity
7,QVQLVESGVGFVQAGGSLRLSCAASGRIFGYYMGWYIQAPGKERELVAGISKRGTRTRYADSVKGRFTISRDNAKNTVFLQMNSLKPEDTAVYYCNADYYVSNMDYWGQGTQVTVSS,high polyreactivity
8,QVQLVESGVGIVEAGGSLRLSCAASGRSFTYNAMVWYRQAPGKERELVAAISNTGSTYYADSVKGRFTISRDNAKNSVYLQMNCVKPEDTAVYYCAADRAEFRQDDDPGESNYWGQGTQVTVSS,low polyreactivity
9,QVQLVESGVGIVQAGGILRLSCAASGSIFFFYAMGWYRQAPAKERELVAAITSSDGDTYYADSVKGRFTISRDNAKNTVYLEMNSLKPEDTAVYYCAVRSSWYEGDYWGQGTQVTVSS,low polyreactivity
10,QVQLVESGVGIVQAGGSLRLSCAASGSTFRAYVMGWYRQAPGKERELVAVISSGGSTKYADSVKGRFTISRDNAKNTDYVQMNSLKPVDTAVYYCAARRASRHRYYPFDYWGQGTQVTVSS,high polyreactivity
11,QVQLVESGVGLDQAGGSLRLSCAASGSIFIINAMGLYRQAPGKERELVARISNGGNTYADSVKGRFTISRDNAKNTVYLQMKSLKPEDTAVYYCAARAYARRPKYVPKFDYWGQGTQVTVSS,high polyreactivity
12,QVQLVESGVGLFQAGGSLRLTCAASGSTFYLNDMGWYRQAPAKERELVAAIDWSGGSTYYADSVKGRFTNSRDNAKYYGYLQMNSLTPEDTAVYYCAARLFYEWRRLDYFIAWDYWGHGTQVTVSS,low polyreactivity
13,QVQLVESGVGLVKAGVSLRLSSDASARIFPHYAMGWYRQAPGKERELFAPINVDGGRTYYPDSVKGRFTISRDNAKNTVYLQLNILKPEDTAVYYCAAKPFLYHDQDYGYAVEFNYWGQGTQVTVSS,low polyreactivity
14,QVQLVESGVGLVQAAGSLRLSCASSGIICGEYAMGWYRQAPGNERELVAAISGSGSRTYYADSVKVRFTISRDIAKNTVFLQMNRLKPEDTAVYYCNSRRYIYNYDYWGQGTQVTVSS,high polyreactivity
15,QVQLVESGVGLVQAGGILRLSCAASGRIFNGYALGWYRQAPGKERELVAVITWNGGSTYYADSVKGRFTISRDNAKNTVYLQMNSLKPEETAVYYCADRRTGYYGTRDYWGQVTQVTVSS,high polyreactivity
16,QVQLVESGVGLVQAGGILRLSCAASGRIFYKNAMVWYRQAPGKERELVATITYSDGTTYYADSLKGRFTISRDNAKNTVYLQMNSLKPEDTAVYYCAAQTDSVESDYWGQGTQVTVSS,low polyreactivity
17,QVQLVESGVGLVQAGGILRLSCAASGSSFRGYAMGWYRQAPGKERELVAAISSRGARTHYADSVKGRFTISRDNAKNTVYLQMNRLKPEDTAVYYCNKRQVFVSTGEYEFDYWGQGTQVTVSS,low polyreactivity
18,QVQLVESGVGLVQAGGRLRLICAASGSTYDSAMGWYIQAPGKERELVASISWSDSSTYYADSVKGRFTISPDNAKNTVYLQMTSLKPEDSAVYYCNAEQGTRDSDYWGQGTQVTVSS,low polyreactivity
19,QVQLVESGVGLVQAGGRLRLSCAASGLTLHRYTMGWYRQAPGKERELVAVITYGGGNTYYADSVKGRFTISRDNAKNTVYLQLNCLKPEDTAVYYCAARDPPFYWYDYWGQGTQVTVSS,low polyreactivity
20,QVQLVESGVGLVQAGGRLRLSCAASGRIFGSNAMGWYRQAPGKERELVAAITRSGGSTYYADSVKGRFTISRDNAKNTVYLQMNSLKPEDTAVYYCAAVRTQPKYDYCGQGTQVTVSS,high polyreactivity
21,QVQLVESGVGLVQAGGRLRLSCAASGSIFYYYAMGWYRQAPGKERELVAAISGTGGSTYYADSVKGRFTISRDNAKITFYLQMNSLKPEDTAVYYCAASFYIERHRYIYWGQGTQVTVSS,high polyreactivity
22,QVQLVESGVGLVQAGGSLRLICADSGSIFSQYAMGGYRPAPGKERELVAAISKNGGSTYYADSVKGRFTISRDNAKNTVYSQMNSLKPEDTAVYYCAARVLKGYYWGQGTQVTVSS,high polyreactivity

row,Sequence,polyreactivity (PSR sort gate)
1,QVQLVESGVGLVQAGGSLRLSCAASGFIFGVTTMGWYRLAPGKERELVAAISTLASSTFDADSVKGRFTISRDNAKNTVYLQMNSLKPEDTAVYYCAVDLNWFFSFGLDYWGQGTQLTVSS,low polyreactivity
2,QVQLVESGVGLVQAGGSLRLSCAASGFIFRFYTMGWYRQAPGKERELVAAISGSGGRTYYADSVKGRFTISRDYANNTVYVQMNRLKPEDTEVYYCNKQFLYPSYDYWGQGTQVTVSS,high polyreactivity
3,QVQLVESGVGLVQAGGSLRLSCAASGFTFAFYAMGWYRQAPGKERELVAAISRRGGSTTYADSVKGRFTISRDNAKYTVYLQMNSLKPEDTAVYYCNAVSTRNPGPDYYYWGQGTQVTVSS,high polyreactivity
4,QVQLVESGVGLVQAGGSLRLSCAASGFTFKSYTMGWYRQAPGKERELVANISRRGGSTYYADSVKGRFTISRDTAKNTVYLQMNRLKPEDTAVYYCAADAYGFLYTTYRYFYWGQGTQVTVST,high polyreactivity
5,QVQLVESGVGLVQAGGSLRLSCAASGGIFAVYAMGWYIQAPGKERELVAAITWRGGSTRYADSVKGRFTISRDNAKNTVYLQMNSLKPEDTAVYYCAVRSTGYPSRYYYWGQGTQVTVSS,high polyreactivity
6,QVQLVESGVGLVQAGGSLRLSCAASGITLYNYAMGWYRHAPGKERELVAAISLSGGRTYYADSVKGRFTISRDNAKNTVYLQMNSLKPEDTAVYYCAADWLNSDPYNYWGQGTQVTVSS,low polyreactivity
7,QVQLVESGVGLVQAGGSLRLSCAASGLIFGYYAMGRNRQAPGKERELVAAITRGGGRTYYADSVKGRFTISRDNAKNTVYLQMNSLKPEDTAVYYCNAVRRVSSAGEFDYWGQGTQVTVSS,high polyreactivity
8,QVQLVESGVGLVQAGGSLRLSCAASGLTFLYYAMAWLRQAPGKERELVAVISSGGRTYYADSVKGRFTISRDNAKNTVYLQMHSLKPEDTAVYYCAAYDPYYQSTFDYWGQGTQVTVSS,high polyreactivity
9,QVQLVESGVGLVQAGGSLRLSCAASGNTISYNAMGWSRQAPGKERELVAAIRWSGGSTNYADSVKGRFTISRDNAKNTVYLQMNSLKPEDTAVYYCNARYASTNYGWISYYWGQGNQVTVSS,high polyreactivity
10,QVQLVESGVGLVQAGGSLRLSCAASGRIFAPYAMGWYRQAPGKERELVAAIRWRGGSTSYADSVKGRFTISRDNAKNTVYLQMNSLKPEDTAVYYCNADYGFSFYWYDYWGQGTQVTVSS,low polyreactivity
11,QVQLVESGVGLVQAGGSLRLSCAASGRIFRGYAMGWYRQAPGKEREFVAAISWSGGDTYYADSVKGRFTISRDNAKNTVYLQMNSLKAEDTAVYYFATEYRLIPGPFVWPYDYWGQGTQVTVSS,high polyreactivity
12,QVQLVESGVGLVQAGGSLRLSCAASGRIFRRYVMGWYRQAPGKEREFVAAITSRGGRTYYADSVKGRFTISRDNAKNTVYLQMNSLKPEDTAVYYCAARYSRSMDYWGQGTQVTVSS,high polyreactivity
13,QVQLVESGVGLVQAGGSLRLSCAASGRIFYPYAMGWYRQAPGKERELDAVINGSGGSTYYADSVKGRFTISRDYAKNTVYLQMNSLKPEDTAVYYCARVWSRRYGGWYRNYYWGQGTQVTVSS,high polyreactivity
14,QVQLVESGVGLVQAGGSLRLSCAASGRIFYTYAMGWYRQAPGKERELVAAISSRTGSTYYADSVKGRFTISRDNAKNTVYLQMNSLKPEDTAVYYCAAYLWKSKRKLDYWGQGTQVTVSS,high polyreactivity
15,QVQLVESGVGLVQAGGSLRLSCAASGRIFYYNAMGWYRQAPGKVRELVASISWDASSTYYADSVKGRFTISRDNAKNTVYLQMNSLKPEDTAVYYCNKKHLYRQYDYWGQGTQVTVTS,low polyreactivity
16,QVQLVESGVGLVQAGGSLRLSCAASGSIFHIYAMGWYRQAPGKERELVAAMTYADSVKGRFTISRVNAKNTVYLQMNSLKPEDTAVYECNADNWPRIHGSAYDYWGQGTQVTVSS,low polyreactivity
17,QVQLVESGVGLVQAGGSLRLSCAASGSIFQKYTMGWYRQAPGKERQLVAAITRSGGSTYYADSVKGRFTISRDNAKNTVYLQMNSLKAEDSAVYYCNKRYIPWAYDYWGQGTQVTVSS,high polyreactivity
18,QVQLVESGVGLVQAGGSLRLSCAASGSIFYHYVMGWYRQAPGKERELVAGISWSGVSTYYADSVKGRFTISRDNAKNTVYLQMNSLKPEDTADYYCAAVYRQSRLHTFGYWGQGTQVTVSS,high polyreactivity
19,QVQLVESGVGLVQAGGSLRLSCAASGSTFDFNAMGWYRPAPGKERELVAAITGSGGSTDYADSVKGRFTISRDNAKNTVYLQMNSLKPEDTAVYYCNAGKTIDYRDGVGYDHWGQGTQVTVSS,low polyreactivity
20,QVQLVESGVGLVQAGGSLRLSCAASGSTFWSYTMGWYRQAPGKERELVARIRTTGGSTYADSVKGRFTISRDNAKNTVYLQMNSLKPEDTAVYYCAKEGWLRYYPWYGGDYWGQGTQVTVSS,high polyreactivity
21,QVQLVESGVGLVQAGGSLRLSCAASGYIFRLYAMGGYRQAPGKERELVATITASGGTYYADSVKGRFTISRDNAKNTVYLQMNSLKPEDTAVYYCAAAKLRRLSRVRYGYWGQGTQVTVSS,high polyreactivity

# Source: the nanobody polyreactivity screen of Harvey et al. (2022)
